Measurements as given in paper PMC6787082, “The cell cycle-regulated DNA adenine methyltransferase CcrM opens a bubble at its DNA recognition site”.

Experiments:
CcrM [1] = biological target: T1, CcrM (Caulobacter crescentus, UniProt P0CAW2 1-358); test: X-ray crystallography (2.34 A); sinefungin; Co-crystallization: protein stock in 20 mM HEPES pH 8.0, 300 mM NaCl, 5% glycerol, 0.5 mM TCEP; ~1:1 monomer:duplex (~56 uM), 5x sinefungin; well 0.1 M HEPES pH 7.8, 10% PEG 8000, 3% PEG 6000; 19 C; details: protein: recombinant; tags: N-terminal His-tag; chain copies: 2; 5' overhang 1 nt on each strand (C and G), 18 bp
T1 sequence (P0CAW2 whole entry): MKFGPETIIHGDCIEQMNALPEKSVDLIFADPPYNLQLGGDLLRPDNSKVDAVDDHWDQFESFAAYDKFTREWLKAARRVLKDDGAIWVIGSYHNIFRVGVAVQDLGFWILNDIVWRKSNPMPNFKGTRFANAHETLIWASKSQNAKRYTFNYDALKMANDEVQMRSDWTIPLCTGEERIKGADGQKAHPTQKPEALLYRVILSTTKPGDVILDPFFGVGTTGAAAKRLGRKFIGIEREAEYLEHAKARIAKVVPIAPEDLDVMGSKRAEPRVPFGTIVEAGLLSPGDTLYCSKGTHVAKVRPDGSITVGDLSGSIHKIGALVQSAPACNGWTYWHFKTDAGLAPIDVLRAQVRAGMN

CcrM [2] = biological target: T1, CcrM; test: X-ray crystallography (2.7 A); sinefungin; Co-crystallization: protein stock in 20 mM HEPES pH 8.0, 300 mM NaCl, 5% glycerol, 0.5 mM TCEP; ~1:1 monomer:duplex (~56 uM), 5x sinefungin; well 0.1 M HEPES pH 7.8, 10% PEG 8000, 3% PEG 6000; 19 C; details: protein: recombinant; tags: N-terminal His-tag; chain copies: 2; 5' overhang 1 nt on each strand, 18 bp

B1: GAATC 18-bp duplex with 1-nt overhangs (dsDNA)
DNA 1: CGATTCAATGAATCCCAAG
DNA 2: GCTTGGGATTCATTGAATC
binding result (CcrM [1]): binds

B2: Hemimethylated GAATC duplex (dsDNA)
DNA 1: CGATTCAATGAATCCCAAG
DNA 2: GCTTGGGATTCATTGAATC
modifications: N6-methyladenine (printed M) at position 8 of strand 2 (GATTC, non-target strand)
binding result (CcrM [2]): binds
